In article PMC9352680, “A comprehensive thermodynamic model for RNA binding by the Saccharomyces cerevisiae Pumilio protein PUF4”:

T1: PUF4 RNA-binding domain (Saccharomyces cerevisiae, UniProt P25339 537-888)
T1 sequence: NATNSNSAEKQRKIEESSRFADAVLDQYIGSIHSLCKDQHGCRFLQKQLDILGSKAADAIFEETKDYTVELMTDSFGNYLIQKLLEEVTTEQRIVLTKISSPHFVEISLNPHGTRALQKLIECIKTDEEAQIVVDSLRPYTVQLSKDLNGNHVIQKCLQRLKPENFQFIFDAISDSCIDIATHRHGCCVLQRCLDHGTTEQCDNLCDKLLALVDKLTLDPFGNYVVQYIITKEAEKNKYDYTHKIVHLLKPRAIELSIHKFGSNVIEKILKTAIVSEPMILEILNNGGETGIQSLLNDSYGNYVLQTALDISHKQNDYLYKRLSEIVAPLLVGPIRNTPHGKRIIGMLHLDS


The binders below were run against T1, PUF4 RNA-binding domain (assay: Mg; RNA-MaP; 20 mM Na-HEPES pH 7.4, 30 mM KOAc, 0.75 mM MgCl2, 0.1% Tween-20, 5% glycerol, 0.1 mg/mL BSA, 2 mM DTT; 25 C; 0.0125-409.6 nM protein). Conditions: tags: N-His6-TEV cleaved; C-SNAP kept, Cy3B-labelled; label: tethered on chip by stalled RNA polymerase.

Row | Binder | Kd [nM]
1 | UCUCUUUGUAGUACCUUCUCUU (ssRNA) [Ic_S1_P5E.1_K5.1_C5.1_H5.1_A5.1_[T5G]_F5.1_[T8C]_[T9C]_[A10T]_T5.1] | > 2300
2 | UCUCUUUGUAUCUUAUUCUCUU (ssRNA) [Ic_S1_P5E.1_K5.1_C5.1_H5.1_A5.1_[T6C]_[A7T]_F5.1_[T9A]_[A10T]_T5.1] | 3.28
3 | UCUCUUUGUAUCCCUAUCUCUU (ssRNA) [Ic_S1_P5E.1_K5.1_C5.1_H5.1_A5.1_[T6C]_[A7C]_F5.1_[T8C]_T5.1] | 13.3
4 | UCUCUUUGUAGCACUUUCUCUU (ssRNA) [Ic_S1_P5E.1_K5.1_C5.1_H5.1_A5.1_[T5G]_[T6C]_F5.1_[T8C]_[A10T]_T5.1] | 1000
5 | UCUCUUUGUAUCGUUGUCUCUU (ssRNA) [Ic_S1_P5E.1_K5.1_C5.1_H5.1_A5.1_[T6C]_[A7G]_F5.1_[A10G]_T5.1] | 315
6 | UCUCUUUGUACUCCCUUCUCUU (ssRNA) [Ic_S1_P5E.1_K5.1_C5.1_H5.1_A5.1_[T5C]_[A7C]_F5.1_[T8C]_[T9C]_[A10T]_T5.1] | 496
7 | UCUCUUUGUAACUAAAUCUCUU (ssRNA) [Ic_S1_P5E.1_K5.1_C5.1_H5.1_A5.1_[T5A]_[T6C]_[A7T]_F5.1_[T8A]_[T9A]_T5.1] | 506
8 | UCUCUUUGUAUAUCAGUCUCUU (ssRNA) [Ic_S1_P5E.1_K5.1_C5.1_H5.1_A5.1_[T6A]_[A7T]_F5.1_[T8C]_[T9A]_[A10G]_T5.1] | 4.58
9 | UCUCUUGGUAUGUAUCUCUU (ssRNA) [Ib_S1_P3E.1_K3.1_C3.1_H3.1_[T1G]_A3.1_[A6G]_F3.1_T3.1] | 723
10 | UCUCUUUGUAUACCGGUCUCUU (ssRNA) [Ic_S1_P5E.1_K5.1_C5.1_H5.1_A5.1_[T6A]_[A7C]_F5.1_[T8C]_[T9G]_[A10G]_T5.1] | 470
11 | UCUCUUUGUACCUCCCUCUCUU (ssRNA) [Ic_S1_P5E.1_K5.1_C5.1_H5.1_A5.1_[T5C]_[T6C]_[A7T]_F5.1_[T8C]_[T9C]_[A10C]_T5.1] | 414
12 | UCUCUUUGUAAAUAUCUCUCUU (ssRNA) [Ic_S1_P5E.1_K5.1_C5.1_H5.1_A5.1_[T5A]_[T6A]_[A7T]_F5.1_[T8A]_[A10C]_T5.1] | 27.1
13 | UCUCUUUGUAUAAACGUCUCUU (ssRNA) [Ic_S1_P5E.1_K5.1_C5.1_H5.1_A5.1_[T6A]_F5.1_[T8A]_[T9C]_[A10G]_T5.1] | 378
14 | UCUCUUUGUAAUAUGGUCUCUU (ssRNA) [Ic_S1_P5E.1_K5.1_C5.1_H5.1_A5.1_[T5A]_F5.1_[T9G]_[A10G]_T5.1] | 10.1
15 | UCUCUUUGUAACAUUCUCUCUU (ssRNA) [Ic_S1_P5E.1_K5.1_C5.1_H5.1_A5.1_[T5A]_[T6C]_F5.1_[A10C]_T5.1] | 15
16 | UCUCUUUGUACCUUAGUCUCUU (ssRNA) [Ic_S1_P5E.1_K5.1_C5.1_H5.1_A5.1_[T5C]_[T6C]_[A7T]_F5.1_[T9A]_[A10G]_T5.1] | 2.41

Row | Binder | Kd [nM]
17 | UCUCUUUGUAAAUACUUCUCUU (ssRNA) [Ic_S1_P5E.1_K5.1_C5.1_H5.1_A5.1_[T5A]_[T6A]_[A7T]_F5.1_[T8A]_[T9C]_[A10T]_T5.1] | 37.4
18 | UCUCUUUGUAUAUUGUCUCUU (ssRNA) [Ic_S1_P4E.1_K4.1_C4.1_H4.1_A4.1_F4.1_[A9G]_T4.1] | 3.06
19 | UCUCUUUGUAUAGCAUUCUCUU (ssRNA) [Ic_S1_P5E.1_K5.1_C5.1_H5.1_A5.1_[T6A]_[A7G]_F5.1_[T8C]_[T9A]_[A10T]_T5.1] | 32.4
20 | UCUCUUUGUAAAACACUCUCUU (ssRNA) [Ic_S1_P5E.1_K5.1_C5.1_H5.1_A5.1_[T5A]_[T6A]_F5.1_[T8C]_[T9A]_[A10C]_T5.1] | 56.4
21 | UCUCUUUGUACGUUCAUCUCUU (ssRNA) [Ic_S1_P5E.1_K5.1_C5.1_H5.1_A5.1_[T5C]_[T6G]_[A7T]_F5.1_[T9C]_T5.1] | 51.8
22 | UCUCUUUGUACUCUUUUCUCUU (ssRNA) [Ic_S1_P5E.1_K5.1_C5.1_H5.1_A5.1_[T5C]_[A7C]_F5.1_[A10T]_T5.1] | 23.1
23 | UCUCUUUGUACGUCUGUCUCUU (ssRNA) [Ic_S1_P5E.1_K5.1_C5.1_H5.1_A5.1_[T5C]_[T6G]_[A7T]_F5.1_[T8C]_[A10G]_T5.1] | 697
24 | UCUCUUUGUAUUUAAAUCUCUU (ssRNA) [Ic_S1_P5E.1_K5.1_C5.1_H5.1_A5.1_[A7T]_F5.1_[T8A]_[T9A]_T5.1] | 106
25 | UCUCUUUGUAACCGUAUCUCUU (ssRNA) [Ic_S1_P5E.1_K5.1_C5.1_H5.1_A5.1_[T5A]_[T6C]_[A7C]_F5.1_[T8G]_T5.1] | 52.9
26 | UCUCUUUGUACGACCAUCUCUU (ssRNA) [Ic_S1_P5E.1_K5.1_C5.1_H5.1_A5.1_[T5C]_[T6G]_F5.1_[T8C]_[T9C]_T5.1] | 1000
27 | UCUCUUUGUACAAAACUCUCUU (ssRNA) [Ic_S1_P5E.1_K5.1_C5.1_H5.1_A5.1_[T5C]_[T6A]_F5.1_[T8A]_[T9A]_[A10C]_T5.1] | 45.2
28 | UCUCUUUGUAUUGCCUUCUCUU (ssRNA) [Ic_S1_P5E.1_K5.1_C5.1_H5.1_A5.1_[A7G]_F5.1_[T8C]_[T9C]_[A10T]_T5.1] | 652
29 | UCUCUUAGUACAUAUCUCUU (ssRNA) [Ib_S1_P3E.1_K3.1_C3.1_H3.1_[T1A]_A3.1_[T5C]_F3.1_T3.1] | 1760
30 | UCUCUUUGUACACGCGUCUCUU (ssRNA) [Ic_S1_P5E.1_K5.1_C5.1_H5.1_A5.1_[T5C]_[T6A]_[A7C]_F5.1_[T8G]_[T9C]_[A10G]_T5.1] | 709
31 | UCUCUUUGUAAGUAAAUCUCUU (ssRNA) [Ic_S1_P5E.1_K5.1_C5.1_H5.1_A5.1_[T5A]_[T6G]_[A7T]_F5.1_[T8A]_[T9A]_T5.1] | 2150
32 | UCUCUUUGUACGUGCUUCUCUU (ssRNA) [Ic_S1_P5E.1_K5.1_C5.1_H5.1_A5.1_[T5C]_[T6G]_[A7T]_F5.1_[T8G]_[T9C]_[A10T]_T5.1] | 297
